B1: wild-type murine RAD51AP1 fused to mCherry [mouse] / murine RAD51 with a C-terminal EGFP tag [mouse] (parent)
chain 1: MVRPTRNRKPINYSQFEDSGNDSDDDFISSSTPVNKSKTVPKVLKQDKPKPNLKNLQKEEVLPTEPPKKRVALDDKVFQRGLEVALALSVKELPTLTNQVKKSKEKSTDKQGKEKTENTGKPPRVSNCSVASDDVEDLDKITEEGDASSVEGERKSPSQAKAPRRRAPSEGSDGSSANDTESESATGEGSESDPDFDESKESDEDFGVRRSKESKKKTVQKKPAGEKKERKSKPKCEASVTSVDPAPAAIKSGSPSLPQAVGLPSEATRKPAIMCSPSAESKRPKWVPPAASGSRNSSSNALAGTPAKSPSQSLRLGLSRLAPVKRLHPSATSSQVR
chain 2: MAMQMQLEASADTSVEEESFGPQPISRLEQCGINANDVKKLEEAGYHTVEAVAYAPKKELINIKGISEAKADKILTEAAKLVPMGFTTATEFHQRRSEIIQITTGSKELDKLLQGGIETGSITEMFGEFRTGKTQICHTLAVTCQLPIDRGGGEGKAMYIDTEGTFRPERLLAVAERYGLSGSDVLDNVAYARGFNTDHQTQLLYQASAMMVESRYALLIVDSATALYRTDYSGRGELSARQMHLARFLRMLLRLADEFGVAVVITNQVVAQVDGAAMFAADPKKPIGGNIIAHASTTRLYLRKGRGETRICKIYDSPCLPEAEAMFAINADGVGDAKD

Variants of: B1
Experiment: co-immunoprecipitation (IP RAD51AP1, blot RAD51), band quantification
Settings: asynchronous 293FT cells, transient co-expression, lane 6, parent: 1, read off a plot

Row | ratio to parent | Variant
1 | 0.71 | chain 1 S309A

Variants of: B1
Experiment: co-immunoprecipitation (IP GFP-RAD51, blot RAD51AP1), band quantification
Settings: asynchronous 293FT cells, transient co-expression, lane 16, parent: 1, read off a plot

Row | ratio to parent | Variant
2 | 0.53 | chain 1 S309A

Variants of: B1
Experiment: co-immunoprecipitation (IP RAD51AP1, blot RAD51), band quantification
Settings: asynchronous 293FT cells, transient co-expression, lane 7, parent: 1, read off a plot

Row | ratio to parent | Variant
3 | 0.18 | chain 1 S309D

Variants of: B1
Experiment: co-immunoprecipitation (IP GFP-RAD51, blot RAD51AP1), band quantification
Settings: asynchronous 293FT cells, transient co-expression, lane 17, parent: 1, read off a plot

Row | ratio to parent | Variant
4 | 0.57 | chain 1 S309D

Variants of: B1
Experiment: co-immunoprecipitation (IP RAD51AP1, blot RAD51), band quantification
Settings: asynchronous 293FT cells, transient co-expression, lane 8, parent: 1, read off a plot

Row | ratio to parent | Variant
5 | 0.95 | chain 1 T305A S309A

Variants of: B1
Experiment: co-immunoprecipitation (IP GFP-RAD51, blot RAD51AP1), band quantification
Settings: asynchronous 293FT cells, transient co-expression, lane 18, parent: 1, read off a plot

Row | ratio to parent | Variant
6 | 0.45 | chain 1 T305A S309A

Variants of: B1
Experiment: co-immunoprecipitation (IP RAD51AP1, blot RAD51), band quantification
Settings: asynchronous 293FT cells, transient co-expression, lane 9, parent: 1, read off a plot

Row | ratio to parent | Variant
7 | 0.02 | chain 1 T305D S309D

Variants of: B1
Experiment: co-immunoprecipitation (IP GFP-RAD51, blot RAD51AP1), band quantification
Settings: asynchronous 293FT cells, transient co-expression, lane 19, parent: 1, read off a plot

Row | ratio to parent | Variant
8 | 0.08 | chain 1 T305D S309D

Variants of: B1
Experiment: co-immunoprecipitation (IP RAD51AP1, blot RAD51), band quantification
Settings: asynchronous 293FT cells, transient co-expression, lane 5, parent: 1, read off a plot

Row | ratio to parent | Variant
9 | 0.07 | chain 1 T305D

Variants of: B1
Experiment: co-immunoprecipitation (IP GFP-RAD51, blot RAD51AP1), band quantification
Settings: asynchronous 293FT cells, transient co-expression, lane 15, parent: 1, read off a plot

Row | ratio to parent | Variant
10 | 0.32 | chain 1 T305D
